Assay results from publication PMC3777995, “The Inhibitory Helix Controls the Intramolecular Conformational Switching of the C-Terminus of STIM1” (PLoS ONE, 2013).
Several values for one entry are separate records, joined by “and”; a condition that tells them apart may be missing. Identical values can stand only once.

Legend:
[1] = target: the molecule itself; experiment: AUC; sedimentation velocity, 42,000 rpm, 4°C, interference detection; approximately 6 mg/ml CC1-IH, 1.57 mg/ml CC1, 1.2 mg/ml MBP-IH; 20 mM Tris-HCl pH 8.0, 200 mM NaCl, 1 mM EDTA; self-associating multimerization model
[2] = target: the molecule itself; experiment: SEC; HiLoad 26/60 Superdex 200 and Superdex 200 columns calibrated with protein standards; 20 mM Tris-HCl pH 8.0, 200 mM NaCl, 1 mM EDTA

B1: wild-type CC1-IH (human STIM1 amino acids 237-340) (domain or fragment, UniProt Q13586 237-340, looked up)
chain: SKEHMKKMMKDLEGLHRAEQSLHDLQERLHKAQEEHRTVEVEKVHLEKKLRDEINLAKQEAQRLKELREGTENERSRQKYAEEELEQVREALRKAEKELESHSS
notes: Predominantly a dimer and partially a tetramer by AUC; His tag removed with PreScission protease; source: E. coli BL21(DE3) Codon-Plus, purified (Ni-NTA, Q-Sepharose, Superdex-200)
- stoichiometry N [1]: 2 and 4

B2: IH-only fragment of STIM1 (peptide, UniProt Q13586 310-340, looked up)
chain: ERSRQKYAEEELEQVREALRKAEKELESHSS
notes: limits 310-340 are printed for the MBP-tagged IH from which this fragment was cut; Theoretical mass 3.7 kDa; also called IH-only protein; source: E. coli, obtained by PreScission digestion of purified MBP-IH, purified (Superdex 200)
- stoichiometry N [2]: 2

B3: MBP-IH fusion protein (MBP-tagged IH, STIM1 residues 310-340) (domain or fragment, human, UniProt Q13586 310-340, looked up)
chain: B2 chain
notes: made by loop-out of the CC1 fragment from MBP-CC1-IH; Theoretical mass 49 kDa; a PreScission-cleavable segment stands between MBP and IH; also called IH-MBP fusion protein; source: E. coli, purified (MBPTrap, Q-Sepharose, Superdex-200)
- stoichiometry N [2]: 2
